# From patent US7351689
# Molecular target: human IL-28 receptor on transfected 293 HEK cells (IL-28 receptor alpha subunit with endogenous CRF2-4) (human)
# Test: cell-based or functional assay
# Chain of human IL-28 receptor on transfected 293 HEK cells (IL-28 receptor alpha subunit with endogenous CRF2-4) (human) (Q8IU57 21-520): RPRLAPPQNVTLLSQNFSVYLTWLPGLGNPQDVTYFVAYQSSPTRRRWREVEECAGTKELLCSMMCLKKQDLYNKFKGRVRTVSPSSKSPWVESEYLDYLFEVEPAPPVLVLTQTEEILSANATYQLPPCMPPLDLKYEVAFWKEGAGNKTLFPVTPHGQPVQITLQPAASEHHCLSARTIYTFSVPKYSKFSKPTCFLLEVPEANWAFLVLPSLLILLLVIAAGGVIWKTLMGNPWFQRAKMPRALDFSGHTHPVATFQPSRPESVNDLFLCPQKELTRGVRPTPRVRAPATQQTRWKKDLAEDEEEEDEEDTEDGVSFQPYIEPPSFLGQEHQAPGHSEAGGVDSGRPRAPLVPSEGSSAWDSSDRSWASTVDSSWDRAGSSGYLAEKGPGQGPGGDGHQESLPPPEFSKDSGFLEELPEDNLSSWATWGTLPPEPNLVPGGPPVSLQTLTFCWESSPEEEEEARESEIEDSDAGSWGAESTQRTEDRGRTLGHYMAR
"ISRE Signaling of Transfected 293 Cells Following Class II Cytokine Stimulation (Fold Induction), ISRE-Luc./IL-28R, Zcyto10 125 ng/ml (fold induction)","ISRE Signaling of Transfected 293 Cells Following Class II Cytokine Stimulation (Fold Induction), ISRE-Luc./IL-28R, HuIL10 100 ng/ml (fold induction)",Substance
1,–,zcyto10 (from UniProt Q9NYY1 25-176) (ligand)
–,0.5,huIL10 (from UniProt P22301 19-178) (ligand)
